The source of these data is patent publication US20230174670A1 (JIANGSU HENGRUI PHARMACEUTICALS, published 2023).

A word on the EC50: it is the concentration that produces a half-maximal response.

Where a chain is given by its changes, count along the chain named.

To fix the notation:
T1: recombinant human CD25-His protein (human, UniProt P01589 22-213)
T1 construct: range 22-213; Purchased from Sino Biological Inc. Printed construct Met1-Cys213 includes the signal peptide
T1 sequence (looked up): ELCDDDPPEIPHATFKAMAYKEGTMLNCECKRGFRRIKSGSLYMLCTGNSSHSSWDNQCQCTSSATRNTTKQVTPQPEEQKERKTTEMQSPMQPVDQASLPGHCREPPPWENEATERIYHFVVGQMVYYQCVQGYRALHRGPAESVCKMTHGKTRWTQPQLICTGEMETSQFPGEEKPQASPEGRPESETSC

T2: human CD25 on cells (human, UniProt P01589 22-272)
T2 construct: whole, on cells; also called CD25 on SU-DHL-1 cells; CHO-K1-CD25 cells (clone 2F8)
T2 sequence (looked up): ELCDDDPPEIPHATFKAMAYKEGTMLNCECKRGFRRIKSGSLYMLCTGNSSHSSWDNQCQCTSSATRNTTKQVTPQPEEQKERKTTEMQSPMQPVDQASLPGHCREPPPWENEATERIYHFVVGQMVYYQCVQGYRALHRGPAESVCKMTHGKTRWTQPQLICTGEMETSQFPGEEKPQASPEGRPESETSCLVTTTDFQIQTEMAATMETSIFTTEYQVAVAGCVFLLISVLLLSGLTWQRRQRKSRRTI

T3: recombinant monkey CD25-His protein (monkey (cynomolgus), UniProt H6WS54 1-213)
T3 construct: range 1-213; also called cynomolgus monkey (Cyno) CD25
T3 sequence: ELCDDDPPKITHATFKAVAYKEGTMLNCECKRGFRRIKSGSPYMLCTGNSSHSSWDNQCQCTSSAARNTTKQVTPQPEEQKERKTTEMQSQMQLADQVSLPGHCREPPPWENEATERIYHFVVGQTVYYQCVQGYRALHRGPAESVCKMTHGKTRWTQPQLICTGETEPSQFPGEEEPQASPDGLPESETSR

B1: cAb001 (antibody, V domains shown)
VH: QVTLKESGPGILQPSQTLSLTCSFSGFSLNTFGMGVGWIRQPSGKGLEWLAHIWWDDDKYYNPALKSRLTISKDTSKNQVFLKIANVDTADTVTYYCARITTEVGNYDVWGMGTTVTVSS
VL: EIVLTQSPALMAASPGEKVTITCSVSSGITSNNLHWYQQKSETSPKPWIYGTSNLASGVPIRFSGSGSGTSYSLTISSMEAEDAATYYCQQWSSYPFTFGSGTKLEIK
notes: also called mAb001/cAb001
B2: cAb002 (antibody, human IgG1, V domains shown)
VH: QVTLKESGPGILQPSQTLSLTCSFSGFSLSTFGLGVGWIRQPSGKGLEWLAQIWWDDDEYYNPALKSRLTISKDTSRNQVFLKIANVDTGDTATYFCARMGDTYWYFDVWGTGTTVAVSS
VL: B1 VL with L4V, A13V, V25L, N32S, I61V, G69K
notes: also called mAb002/cAb002
B3: cAb029 (antibody, human IgG1, V domains shown)
VH: QVTLKESGPGILQPSQTLSLTCSFSGFSLSTFGMGVGWIRQPSGKGLEWLAHIWWDDDEYYNPALKSRLTISKDTSKNQVFLKIANVDTADTATYYCTRIMLTTGYFDVWGTGTTVTVSS
VL: B1 VL with S24T, N32S, I61V, K104R
notes: also called mAb029/cAb029
B4: cAb006 (antibody, human IgG1, V domains shown)
VH: QIQLQQSGAELMKPGASVKLSCKATGYTFTGHWIEWVKQRPGHGLEWVGEILPGSNKINYNEKFKGKATFTAETSSNTVYMQLSSLTTEDSAIYYCAGGGGPHWPFAFWGQGSLVTVSA
VL: DIVLTQSPASLTVSLGQRATISCRASESVNVHGAHLMHWYQQKPGQPPKLLIYAASILESGVPARFSGSGSETDFTLNIHPVEEEDAATYFCQQTIEDPRTFGGGTKLEIK
notes: also called mAb006/cAb006
B5: cAb042 (antibody, human IgG1, V domains shown)
VH: QVQLQQSGPELVKSGASVKLSCKASGYTFTTYDINWMKQRPGQGLEWIGWIYPRDGSTKYNAKFKGKATLTEDTSSNTAFMELHSLTSEDSAVYFCARERIYDGSFDYWGQGTTLTVSS
VL: DIVMTQSPSSLSVSAGEKVSMRCKSSQRLFNSRDQKNYLAWYQQKPGQPPKLLIYGASTRESGVPDRFTGSGSGTDFTLTISSVQAEDLAVYYCQNDHIYPLTFGAGTKLELK
notes: also called mAb042/cAb042
B6: cAb037 (antibody, human IgG1, V domains shown)
VH: QVRLQQSGPELVKPGASVQMSCKASGYTFTDYYINWVKQRPGQGLEWIAWIFPGNGNTYFNENFKDKATLSVDKFSSTAFMLLSSLTSEDSAVYFCARATYDHGGYWYFDVWGTGTTVTVSS
VL: QIVLSQSPAILSASPGEKVTMTCRASSSVSHIHWYQQKPGSSPKPWIYATSNLASGVPGRFSGSGSGTSYSLTVSRVEAEDAATYYCQHWNSFTFGGGTELELK
notes: also called mAb037/cAb037
B7: cAb028 (antibody, human IgG1, V domains shown)
VH: EVQLQQSGAELVRPGASVKLSCTASGFNIKNDYVHWVKQRPEQGLEWIGYIDPDNGDTEYASKFLGKATITADTSSNTAYLQLSSLTSEGTAVYYCTTDDTSYGMFACWGLGTLVTVSA
VL: DVLMTQTPLSLPVSLGDQASISCRSSQSIVHSNGNTYLEWYLQKPGQSPKLLIYKVSNRFSGVPDRFSGSGSGTDFTLKISRVEAEDLGVYYCFQGSHVPWTFGGGTKLEIK
notes: also called mAb028/cAb028
B8: cAb004 (antibody, human IgG1, V domains shown)
VH: EVQLQQSGAELVRPGASVKLSCTASGFNIKDDYIQWVKQRPEQGLEWIGWIDPENGDTEYASKFQDKATITSDTSSNTAYLQLSSLTSEDTAVYYCAATTFYASNYGFAYWGQGTLVTVSA
VL: B7 VL with L3V, I29L, E39H, K50Q, V83L, Y92F, F94S, G96S, S97T, W101Y
notes: also called mAb004/cAb004
B9: cAb046 (antibody, human IgG1, V domains shown)
VH: EVQLVESGGGLVKPGGSLKLSCAASGFTFSSYAMSWVRQTPEKRLEWVATISEGGSYTYYPDNVKGRFTISRDNARNNLYLQMSHLKSEDTAMYLCVRDNPWFAYWGQGTLVTVST
VL: B7 VL with Q18R, S28N, Y41F, N58K, W101Y
notes: also called mAb046/cAb046
B10: PR058 (antibody, human IgG1, kappa, V domains shown)
VH: EVQLVESGGGLVQPGGSLRLSCAASGFTFSSYAMSWVRQAPGKRLEWVATISEGGSYTYYPDNVKGRFTISRDNSKNTLYLQMNSLRAEDTAVYLCVRDNPWFAYWGQGTLVTVSS
VL: DVLMTQSPLSLPVTPGEPASISCRSSQNIVHSNGNTYLEWFLQKPGQSPKLLIYKVSKRFSGVPDRFSGSGSGTDFTLKISRVEAEDVGVYYCFQGSHVPYTFGGGTKVEIKR
B11: PR006 (antibody, human IgG1, kappa, V domains shown)
VH: EVQLVQSGAEVKKPGASVKVSCKASGYTFTGHWIEWVRQAPGQGLEWMGEILPGSNKINYNEKFKGRVTFTADTSTSTVYMELSSLRSEDTAVYYCAGGGGPHWPFAFWGQGTLVTVSS
VL: DIVMTQSPDSLAVSLGERATINCRASESVNVHGAHLMHWYQQKPGQPPKLLIYAASILESGVPDRFSGSGSGTDFTLTISSLQAEDVAVYYCQQTIEDPRTFGGGTKVEIKR
B12: PR031 (antibody, human IgG1, kappa, V domains shown)
VH: EVQLVQSGAEVKKPGASVKVSCKASGYTFTTYDINWMKQHPGKGLEWIGWIYPRDGSTKYNAKFKGKATLTEDTSANTAYMELSSLRSEDTAVYYCARERIYDGSFDYWGQGTTVTVSS
VL: DIVMTQSPDSLAVSLGERATINCKSSQRLFNSRDQKNYLAWYQQKPGQPPKLLIYGASTRESGVPDRFSGSGSGTDFTLTISSLQAEDVAVYYCQNDHIYPLTFGQGTKLEIKR
B13: 7G7B6 (antibody, V domains shown)
VH: EVQLVESGGDLVQPRGSLKLSCAASGFTFSSYGMSWVRQTPDKRLELVATINGYGDTTYYPDSVKGRFTISRDNAKNTLYLQMSSLKSEDTAMYFCARDRDYGNSYYYALDYWGQGTSVTVSS
VL: QIVLSQSPAILSASPGERVTMTCRASSSVSFMHWLQQKPGSSPKPWIYATSNLASGVSARFSGSGSGTSYSLTITRVEAEDAATYYCQQWSSNPPAFGGGTKLEIK
B14: PR071 (antibody, human IgG1, kappa, V domains shown)
VH: EVQLVQSGSELKKPGASVKVSCKASGYTFTDYYINWVRQAPGQGLEWMAWIFPGNGNTYFNENFKDRVTLTADKFSSTAYMELSSLRSEDTAVYYCARATYDHGGYWYFDVWGQGTTVTVSS
VL: EIVLSQSPATLSLSPGERATLSCRASSSVSHIHWYQQKPGSSPKPWIYATSNLASGVPGRFSGSGSGTSYSLTVSRVEAEDAATYYCQHWNSFTFGGGTKVEIKR

One test has as its target T1, recombinant human CD25-His protein. Kind of test: ELISA, plate coated with human CD25-His.
Procedure: (§1) The binding activity of the chimeric anti-CD25 antibody and the CD25 recombinant protein was assayed by ELISA. The 96-well plate was coated with human CD25-His/monkey CD25-His at a concentration of 1 g/mL at 50 μL/well. The unbound antigen was washed away with a washing solution (1×PBST). After washing, the plate was blocked with 1% BSA blocking solution prepared in 1×PBST at 37° C. for 1 h. After washing 3 times with the washing solution, the test chimeric antibodies at different dilution concentrations was added and incubated in an incubator at 37° C. for 1 h. After washing 3 times with the washing solution, 100 μL of goat anti-human IgG secondary antibody diluted at 1:5000 was added and incubated in an incubator at 37° C. for 0.5 h. The plate were washed, the TMB color developing solutions A and B were mixed in a 1:1 ratio for color development. After 15 min, the color development reaction was terminated with 1M hydrochloric acid, and the fluorescence value at 450 nm was measured.
Consider B1, for which the EC50 was 228 pM.
On the same count and under the same terms, with B2 the figure was 274 pM.
For B3, the EC50 came to 166 pM.
On the same count and under the same terms, then B4, with 200 pM; and B5, with 224 pM; and B6, with 165 pM.
The same measure, in the same setting: with B7 the figure was 344 pM; with B8, 255 pM.
Still for that read-out and setting: then B9, with 355 pM.

The next test concerns the target T2, human CD25 on cells. The experiment in a line: flow cytometry on SU-DHL-1 cells. Background: A flow cytometer gives signals particle by particle.
Procedure: Since the lymphoma cell line SU-DHL-1 highly expresses CD25, the binding of chimeric anti-CD25 antibodies to SU-DHL-1 cells was determined by flow cytometry. SU-DHL-1 cells in logarithmic growth phase were selected, collected, washed with PBS, and centrifuged. Each well was plated with 100 μL of 2×10⁵ cells and centrifuged at 400 g for 5 min. The test antibodies at different concentrations were added, incubated on ice for 1 h, washed with PBS, and centrifuged at 400 g for 5 min.
Molecule B1 had an EC50 of 180 pM.
The same measure, in the same setting: then B2, with 100 pM; and B3, with 119 pM.
On the same count and under the same terms, then B4, with 329 pM; and B5, with 501 pM; and B6, with 150 pM.
Same read-out and setting: then B7, with 132 pM.
With B8, the EC50 was 168 pM.
Molecule B9 gave an EC50 of 346 pM.

Another test concerns the target T2, human CD25 on cells. Kind of test: cell-based or functional assay.
For the molecule B10, the “ADCC activity, Multiple of maximum fluorescence value (vs. IgG)” value was found to be 386 fold.
Consider B11, for which the “ADCC activity, Multiple of maximum fluorescence value (vs. IgG)” value came to 239 fold.
Same read-out and setting: then B12, with 192 fold; and B13, with 13.3 fold.
Same read-out and setting: then B14, with 322 fold.

A further test concerns the target T3, recombinant monkey CD25-His protein. The experiment in a line: ELISA, plate coated with monkey CD25-His. A general note: An ELISA detects its analyte on a solid surface through an enzyme-linked reagent.
Procedure: as §1
As to B1, the EC50 was found to be 399 pM.
Regarding B2, the EC50 stood at 524 pM.
Consider B3, for which the EC50 turned out to be 114 pM.
Still for that read-out and setting: with B4 the figure was 234 pM.
Still for that read-out and setting: with B5 the figure was 349 pM.
Same read-out and setting: with B6 the figure was 147 pM.
As to B7, the EC50 amounted to 230 pM.
Same read-out and setting: with B8 the figure was 311 pM; with B9, 5570 pM.
